Target: T1, αENaC (Rattus norvegicus, UniProt P37089)
T1 construct: expressed in transfected cells; host or cells: Xenopus oocytes
T1 sequence (P37089 1-698): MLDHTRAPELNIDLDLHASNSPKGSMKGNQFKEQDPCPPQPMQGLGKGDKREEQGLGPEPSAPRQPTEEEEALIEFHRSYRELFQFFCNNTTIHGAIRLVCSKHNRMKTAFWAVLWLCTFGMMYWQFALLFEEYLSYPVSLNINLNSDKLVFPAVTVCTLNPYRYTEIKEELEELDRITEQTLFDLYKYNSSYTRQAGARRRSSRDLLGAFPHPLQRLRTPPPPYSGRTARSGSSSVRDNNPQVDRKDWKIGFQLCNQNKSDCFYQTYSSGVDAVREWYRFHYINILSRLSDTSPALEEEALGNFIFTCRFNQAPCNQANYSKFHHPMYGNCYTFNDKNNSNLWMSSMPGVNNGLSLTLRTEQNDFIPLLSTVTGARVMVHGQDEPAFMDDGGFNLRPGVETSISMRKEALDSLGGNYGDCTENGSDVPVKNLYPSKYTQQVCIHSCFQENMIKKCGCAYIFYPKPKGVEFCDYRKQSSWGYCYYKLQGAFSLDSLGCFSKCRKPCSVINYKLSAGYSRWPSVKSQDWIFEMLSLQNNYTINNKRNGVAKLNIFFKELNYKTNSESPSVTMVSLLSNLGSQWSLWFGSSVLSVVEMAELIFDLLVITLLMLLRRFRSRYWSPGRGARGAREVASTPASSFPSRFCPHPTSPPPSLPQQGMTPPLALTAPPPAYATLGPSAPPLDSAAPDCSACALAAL
T1 sequence (P37090 1-638 partner): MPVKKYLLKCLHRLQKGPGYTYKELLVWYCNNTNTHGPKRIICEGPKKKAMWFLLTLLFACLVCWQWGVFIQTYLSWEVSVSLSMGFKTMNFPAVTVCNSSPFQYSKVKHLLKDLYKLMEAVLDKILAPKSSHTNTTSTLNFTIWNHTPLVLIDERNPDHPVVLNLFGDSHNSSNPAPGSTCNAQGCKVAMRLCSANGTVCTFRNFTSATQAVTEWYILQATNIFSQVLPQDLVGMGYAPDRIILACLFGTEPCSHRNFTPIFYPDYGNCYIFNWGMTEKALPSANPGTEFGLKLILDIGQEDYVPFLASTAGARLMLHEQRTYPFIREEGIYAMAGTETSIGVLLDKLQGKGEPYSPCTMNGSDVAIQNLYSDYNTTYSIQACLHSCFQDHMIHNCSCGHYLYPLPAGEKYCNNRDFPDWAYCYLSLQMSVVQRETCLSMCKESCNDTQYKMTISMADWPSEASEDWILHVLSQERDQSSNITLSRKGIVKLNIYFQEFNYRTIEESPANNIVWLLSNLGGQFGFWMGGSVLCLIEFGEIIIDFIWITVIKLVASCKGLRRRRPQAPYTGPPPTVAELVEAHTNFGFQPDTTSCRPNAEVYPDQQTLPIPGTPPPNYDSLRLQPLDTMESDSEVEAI
T1 sequence (P37091 1-650 partner): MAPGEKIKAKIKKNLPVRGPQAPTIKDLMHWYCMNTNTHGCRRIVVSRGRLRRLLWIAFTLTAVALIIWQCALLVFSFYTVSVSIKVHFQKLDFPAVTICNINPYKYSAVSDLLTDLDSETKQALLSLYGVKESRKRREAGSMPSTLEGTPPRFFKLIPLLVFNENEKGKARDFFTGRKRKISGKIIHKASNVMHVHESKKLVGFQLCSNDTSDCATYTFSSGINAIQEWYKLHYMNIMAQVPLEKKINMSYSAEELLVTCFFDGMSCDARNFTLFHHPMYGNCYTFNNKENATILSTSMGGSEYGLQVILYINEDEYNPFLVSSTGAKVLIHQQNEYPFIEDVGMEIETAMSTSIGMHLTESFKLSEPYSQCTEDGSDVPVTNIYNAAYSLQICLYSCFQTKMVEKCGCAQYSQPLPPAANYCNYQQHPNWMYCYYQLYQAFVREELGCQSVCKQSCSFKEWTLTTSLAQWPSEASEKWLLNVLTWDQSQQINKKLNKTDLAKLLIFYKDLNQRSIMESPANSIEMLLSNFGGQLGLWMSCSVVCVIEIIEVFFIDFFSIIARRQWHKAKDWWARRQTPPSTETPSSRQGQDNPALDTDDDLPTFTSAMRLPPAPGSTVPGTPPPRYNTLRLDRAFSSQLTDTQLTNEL
Test: Surface biotinylation of αENaC in Xenopus oocytes
Format: cell-based
Conditions: coexpression with SPLUNC1 in oocytes
Protocol: The effect of SPLUNC1 on the number of ENaC channels in the plasma membrane was tested by expressing SPLUNC1 and αENaC in Xenopus oocytes. After surface biotinylation of αENaC, total lysate was prepared and lysate from 3-4 eggs was separated on a 10% gel.

B1: SPLUNC1: human SPLUNC1, 256 amino acid secreted PLUNC protein (SEQ ID NO:1); rSPLUNC1 = V5/6His-tagged protein purified from HEK293 media (protein, listed as Homo sapiens)
chain: MFQTGGLIVFYGLLAQTMAQFGGLPVPLDQTLPLNVNPALPLSPTGLAGSLTNALSNGLLSGGLLGILENLPLLDILKPGGGTSGGLLGGLLGKVTSVIPGLNNIIDIKVTDPQLLELGLVQSPDGHRLYVTIPLGIKLQVNTPLVGASLLRLAVKLDITAEILAVRDKQERIHLVLGDCTHSPGSLQISLLDGLGPLPIQGLLDSLTGILNKVLPELVQGNVCPLVNEVLRGLDITLVHDIVNMLIHGLQFVIKV
modifications: V5/6His tag
notes: rSPLUNC1 = V5/6His-tagged protein purified from HEK293 media
plasma membrane ENaC (surface biotinylation): decreased

Reference: patent US9549967B2, “Regulation of sodium channels by PLUNC proteins” (The University of North Carolina at Chapel Hill, priority 2009, dated 2017)
